Data from PMC2064081 (The Journal of Cell Biology, 2007).

Biological target: F-actin (rabbit muscle actin, filaments) (rabbit, UniProt P68135 1-377)
Assay: co-sedimentation

B1: IRSp53/IMD (IRSp53/MIM domain of human IRSp53) (domain or fragment)
chain: MSLSRSEEMHRLTENVYKTIMEQFNPSLRNFIAMGKNYEKALAGVTYAAKGYFDALVKMGELASESQGSKELGDVLFQMAEVHRQIQNQLEEMLKSFHNELLTQLEQKVELDSRYLSAALKKYQTEQRSKGDALDKCQAELKKLRKKSQGSKNPQKYSDKELQYIDAISNKQGELENYVSDGYKTALTEERRRFCFLVEKQCAVAKNSAAYHSKGKELLAQKLPLWQQACADPSKIPERAVQLMQQVASN
binding result: binds
